Results taken from patent US20140056902A1.

Legend:
[1] = target: human BMP9 recombinant protein prepared according to Example 12 of WO 2010/126169 (N-terminal His-tagged hBMP9 complex, pLN1V5_human BMP9 vector) (human) (UniProt Q9UK05); assay: SPR (BIAcore 2000), antibody captured on anti-mouse IgG, human BMP9 recombinant protein as analyte, single cycle kinetics
[2] = target: human mature dimer BMP9 recombinant protein (manufactured by R&D systems, Cat#3209-BP) (human) (UniProt Q9UK05); assay: ELISA, immobilized human BMP9 (100 ng/mL coat), biotin-labeled antibody titrated, absorbance 450-570 nm; unit ng/mL from the legend
Sequence of human mature dimer BMP9 recombinant protein (manufactured by R&D systems, Cat#3209-BP) (human) (Q9UK05 320-429): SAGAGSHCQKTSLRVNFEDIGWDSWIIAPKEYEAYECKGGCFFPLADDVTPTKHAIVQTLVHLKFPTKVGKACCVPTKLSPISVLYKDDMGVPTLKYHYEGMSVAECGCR

Sequence of human BMP9 recombinant protein prepared according to Example 12 of WO 2010/126169 (N-terminal His-tagged hBMP9 complex, pLN1V5_human BMP9 vector) (human) (Q9UK05 320-429, chain 1 of 2): as the sequence (Q9UK05 320-429) above
Sequence of human BMP9 recombinant protein prepared according to Example 12 of WO 2010/126169 (N-terminal His-tagged hBMP9 complex, pLN1V5_human BMP9 vector) (human) (Q9UK05 23-319, chain 2 of 2): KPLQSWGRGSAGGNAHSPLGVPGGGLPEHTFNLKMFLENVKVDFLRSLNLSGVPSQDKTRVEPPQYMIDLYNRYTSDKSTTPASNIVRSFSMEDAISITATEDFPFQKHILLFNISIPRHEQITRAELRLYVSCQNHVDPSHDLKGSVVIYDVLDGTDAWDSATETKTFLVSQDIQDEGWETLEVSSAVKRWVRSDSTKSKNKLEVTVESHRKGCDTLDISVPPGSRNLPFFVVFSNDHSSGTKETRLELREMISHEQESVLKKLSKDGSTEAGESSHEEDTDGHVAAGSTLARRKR

Kd [1]: 0.616 nM
Relative binding affinity (to R&D antibody) [1]: 1 fold
EC50 (read off the curve) [2]: 10 ng/mL
Substance: anti-human BMP9 mouse monoclonal antibody (manufactured by R&D systems, clone No. 360107)
